B1: GpH7-A5/GpH7-B3 variant A327_13S/GpL16-k0 (antibody, human IgG1, kappa)
heavy 1: not shown
heavy 2: not shown
light: DIVMTQSPLSLPVTPGEPASISCQASESLVHSNRNTYLHWYLQKPGQSPQLLIYKVSNRFSGVPDRFSGSGSGTDFTLKISRVEAEDVGVYYCSQNTHVPPTFGQGTKVEIERTVAAPSVFIFPPSDEQLKSGTASVVCLLNNFYPREAKVQWKVDNALQSGNSQESVTEQDSKDSTYSLSSTLTLSKADYEKHKVYACEVTHQGLSSPVTKSFNRGEC
notes: heterodimerized anti-glypican-3 IgG1; alteration in the GpH7-B3 chain only; also called He Ab
B2: GpH7-A5/GpH7-B3 variant D270_11K/GpL16-k0 (antibody, human IgG1, kappa)
heavy 1: not shown
heavy 2: not shown
light: B1 light
notes: as for B1
B3: GpH7-A5/GpH7-B3 variant A330_07I/GpL16-k0 (antibody, human IgG1, kappa)
heavy 1: not shown
heavy 2: not shown
light: B1 light
notes: as for B1
B4: GpH7-A5/GpH7-B3 variant D270_20W/GpL16-k0 (antibody, human IgG1, kappa)
heavy 1: not shown
heavy 2: not shown
light: B1 light
notes: as for B1
B5: GpH7-A5/GpH7-B3 variant D270_05P/GpL16-k0 (antibody, human IgG1, kappa)
heavy 1: not shown
heavy 2: not shown
light: B1 light
notes: as for B1
B6: GpH7-A5/GpH7-B3 variant D270_08L/GpL16-k0 (antibody, human IgG1, kappa)
heavy 1: not shown
heavy 2: not shown
light: B1 light
notes: as for B1
B7: GpH7-A5/GpH7-B3 variant A330_19Q/GpL16-k0 (antibody, human IgG1, kappa)
heavy 1: not shown
heavy 2: not shown
light: B1 light
notes: as for B1
B8: GpH7-A5/GpH7-B3 variant D270_06M/GpL16-k0 (antibody, human IgG1, kappa)
heavy 1: not shown
heavy 2: not shown
light: B1 light
notes: as for B1
B9: GpH7-A5/GpH7-B3 variant D270_14T/GpL16-k0 (antibody, human IgG1, kappa)
heavy 1: not shown
heavy 2: not shown
light: B1 light
notes: as for B1
B10: GpH7-A5/GpH7-B3 variant A330_10E/GpL16-k0 (antibody, human IgG1, kappa)
heavy 1: not shown
heavy 2: not shown
light: B1 light
notes: as for B1
B11: GpH7-A5/GpH7-B3 variant I332_12R/GpL16-k0 (antibody, human IgG1, kappa)
heavy 1: not shown
heavy 2: not shown
light: B1 light
notes: as for B1
B12: GpH7-A5/GpH7-B3 variant P271_03V/GpL16-k0 (antibody, human IgG1, kappa)
heavy 1: not shown
heavy 2: not shown
light: B1 light
notes: as for B1
B13: GpH7-A5/GpH7-B3 variant A330_06M/GpL16-k0 (antibody, human IgG1, kappa)
heavy 1: not shown
heavy 2: not shown
light: B1 light
notes: as for B1
B14: GpH7-A5/GpH7-B3 variant A330_04F/GpL16-k0 (antibody, human IgG1, kappa)
heavy 1: not shown
heavy 2: not shown
light: B1 light
notes: as for B1
B15: GpH7-A5/GpH7-B3 variant D270_03V/GpL16-k0 (antibody, human IgG1, kappa)
heavy 1: not shown
heavy 2: not shown
light: B1 light
notes: as for B1
B16: GpH7-A5/GpH7-B3 variant E269_19Q/GpL16-k0 (antibody, human IgG1, kappa)
heavy 1: not shown
heavy 2: not shown
light: B1 light
notes: as for B1
B17: GpH7-A5/GpH7-B3 variant D270_15Y/GpL16-k0 (antibody, human IgG1, kappa)
heavy 1: not shown
heavy 2: not shown
light: B1 light
notes: as for B1
B18: GpH7-A5/GpH7-B3 variant E333_01G/GpL16-k0 (antibody, human IgG1, kappa)
heavy 1: not shown
heavy 2: not shown
light: B1 light
notes: as for B1
B19: GpH7-A5/GpH7-B3 variant E333_04F/GpL16-k0 (antibody, human IgG1, kappa)
heavy 1: not shown
heavy 2: not shown
light: B1 light
notes: as for B1
B20: GpH7-A5/GpH7-B3 variant E269_20W/GpL16-k0 (antibody, human IgG1, kappa)
heavy 1: not shown
heavy 2: not shown
light: B1 light
notes: as for B1
B21: GpH7-A5/GpH7-B3 variant D270_07I/GpL16-k0 (antibody, human IgG1, kappa)
heavy 1: not shown
heavy 2: not shown
light: B1 light
notes: as for B1

T1 sequence (P12314 16-292): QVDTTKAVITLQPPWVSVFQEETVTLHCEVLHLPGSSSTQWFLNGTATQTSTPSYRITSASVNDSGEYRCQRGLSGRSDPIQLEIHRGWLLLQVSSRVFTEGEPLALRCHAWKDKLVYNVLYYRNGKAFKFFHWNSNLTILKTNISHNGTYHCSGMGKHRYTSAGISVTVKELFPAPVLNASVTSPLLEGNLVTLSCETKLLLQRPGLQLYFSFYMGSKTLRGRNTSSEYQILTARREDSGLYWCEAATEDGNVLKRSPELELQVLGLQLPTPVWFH

The first test addresses T1, FcγRIa extracellular domain with C-terminal His tag (human, UniProt P12314 16-292).
T1 construct: extracellular domain; soluble receptor expressed in FreeStyle293 cells, used as analyte in Biacore; also called FcgRI; 1a; not shown: His tag attached to the C terminus
Description: SPR (Biacore), antibody captured on antigen peptide chip, FcγR as analyte; relative binding. For orientation: Surface plasmon resonance follows binding to a sensor surface in real time, without labels.
B1: the He/Con_1a was 102 % of control GpH7-A5/GpH7-B3/GpL16-k0 (=100).

Take B2: the He/Con_1a is 58.4 % of control GpH7-A5/GpH7-B3/GpL16-k0 (=100).

Turning to B3, the He/Con_1a is 105 % of control GpH7-A5/GpH7-B3/GpL16-k0 (=100).

For the molecule B4, the He/Con_1a is 68 % of control GpH7-A5/GpH7-B3/GpL16-k0 (=100).

Consider B5, for which the He/Con_1a was 67.1 % of control GpH7-A5/GpH7-B3/GpL16-k0 (=100).

With B6, the He/Con_1a was 73.5 % of control GpH7-A5/GpH7-B3/GpL16-k0 (=100).

In the case of B7, the He/Con_1a was 105 % of control GpH7-A5/GpH7-B3/GpL16-k0 (=100).

As for B8, the He/Con_1a is 78.8 % of control GpH7-A5/GpH7-B3/GpL16-k0 (=100).

On to B9, for which the He/Con_1a is 70.6 % of control GpH7-A5/GpH7-B3/GpL16-k0 (=100).

B10: the He/Con_1a was 107 % of control GpH7-A5/GpH7-B3/GpL16-k0 (=100).

As to B11, the He/Con_1a is 100 % of control GpH7-A5/GpH7-B3/GpL16-k0 (=100).

B12: the He/Con_1a is 102 % of control GpH7-A5/GpH7-B3/GpL16-k0 (=100).

B13: the He/Con_1a was 105 % of control GpH7-A5/GpH7-B3/GpL16-k0 (=100).

On to B14, for which the He/Con_1a was 106 % of control GpH7-A5/GpH7-B3/GpL16-k0 (=100).

As to B15, the He/Con_1a was 77.9 % of control GpH7-A5/GpH7-B3/GpL16-k0 (=100).

In the case of B16, the He/Con_1a is 105 % of control GpH7-A5/GpH7-B3/GpL16-k0 (=100).

On to B17, for which the He/Con_1a was 68.5 % of control GpH7-A5/GpH7-B3/GpL16-k0 (=100).

In the case of B18, the He/Con_1a was 103 % of control GpH7-A5/GpH7-B3/GpL16-k0 (=100).

As to B19, the He/Con_1a was 102 % of control GpH7-A5/GpH7-B3/GpL16-k0 (=100).

As to B20, the He/Con_1a is 105 % of control GpH7-A5/GpH7-B3/GpL16-k0 (=100).

For the molecule B21, the He/Con_1a was 74.6 % of control GpH7-A5/GpH7-B3/GpL16-k0 (=100).

In another test the target is T2, FcγRIIb extracellular domain with C-terminal His tag (human, UniProt P31994 43-217).
T2 construct: extracellular domain; soluble receptor expressed in FreeStyle293 cells, used as analyte in Biacore; also called FcgRIIb; 2b; not shown: His tag attached to the C terminus
T2 sequence (looked up): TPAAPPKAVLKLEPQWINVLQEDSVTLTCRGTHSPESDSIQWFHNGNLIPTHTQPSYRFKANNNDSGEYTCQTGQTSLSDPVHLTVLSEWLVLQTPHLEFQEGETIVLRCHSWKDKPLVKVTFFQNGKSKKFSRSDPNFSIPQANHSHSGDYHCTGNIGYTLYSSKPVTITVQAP
The description is as above.
Take B1: the He/Con_2b is 79.5 % of control GpH7-A5/GpH7-B3/GpL16-k0 (=100).

With B2, the He/Con_2b is 20.3 % of control GpH7-A5/GpH7-B3/GpL16-k0 (=100).

B3: the He/Con_2b is 67.1 % of control GpH7-A5/GpH7-B3/GpL16-k0 (=100).

On to B4, for which the He/Con_2b is 34.7 % of control GpH7-A5/GpH7-B3/GpL16-k0 (=100).

As to B5, the He/Con_2b was 13.9 % of control GpH7-A5/GpH7-B3/GpL16-k0 (=100).

For B6, the He/Con_2b is 53.6 % of control GpH7-A5/GpH7-B3/GpL16-k0 (=100).

Regarding B7, the He/Con_2b was 90.8 % of control GpH7-A5/GpH7-B3/GpL16-k0 (=100).

With B8, the He/Con_2b is 48.2 % of control GpH7-A5/GpH7-B3/GpL16-k0 (=100).

Consider B9, for which the He/Con_2b was 57.8 % of control GpH7-A5/GpH7-B3/GpL16-k0 (=100).

For B10, the He/Con_2b is 70.1 % of control GpH7-A5/GpH7-B3/GpL16-k0 (=100).

Regarding B11, the He/Con_2b is 48.9 % of control GpH7-A5/GpH7-B3/GpL16-k0 (=100).

Regarding B12, the He/Con_2b was 74.8 % of control GpH7-A5/GpH7-B3/GpL16-k0 (=100).

B13: the He/Con_2b was 80.5 % of control GpH7-A5/GpH7-B3/GpL16-k0 (=100).

In the case of B14, the He/Con_2b is 92.8 % of control GpH7-A5/GpH7-B3/GpL16-k0 (=100).

In the case of B15, the He/Con_2b was 39.5 % of control GpH7-A5/GpH7-B3/GpL16-k0 (=100).

Regarding B16, the He/Con_2b is 44.3 % of control GpH7-A5/GpH7-B3/GpL16-k0 (=100).

Take B17: the He/Con_2b was 44.9 % of control GpH7-A5/GpH7-B3/GpL16-k0 (=100).

Take B18: the He/Con_2b is 81.4 % of control GpH7-A5/GpH7-B3/GpL16-k0 (=100).

B19: the He/Con_2b was 94.6 % of control GpH7-A5/GpH7-B3/GpL16-k0 (=100).

As to B20, the He/Con_2b was 42.5 % of control GpH7-A5/GpH7-B3/GpL16-k0 (=100).

Regarding B21, the He/Con_2b was 41.5 % of control GpH7-A5/GpH7-B3/GpL16-k0 (=100).

(Values after patent US20180155451A1 (published 2018).)
